T1: IL-1α (UniProt P01583 113-271)
T1 construct: also called 125I-IL-1
T1 sequence: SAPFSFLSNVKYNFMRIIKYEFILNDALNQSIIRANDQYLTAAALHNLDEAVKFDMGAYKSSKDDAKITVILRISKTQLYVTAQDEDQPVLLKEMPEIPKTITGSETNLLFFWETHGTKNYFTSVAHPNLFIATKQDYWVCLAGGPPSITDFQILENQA

T2: CTACK/CCL27 (UniProt Q9Y4X3 25-112)
T2 construct: also called 125I-CCL27/CTACK
T2 sequence: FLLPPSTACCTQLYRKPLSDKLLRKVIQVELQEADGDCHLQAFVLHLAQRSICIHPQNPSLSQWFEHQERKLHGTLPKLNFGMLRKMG

T3: CXCL10/IP-10 (UniProt P02778 22-98)
T3 construct: also called 125I-CXCL10/IP-10
T3 sequence: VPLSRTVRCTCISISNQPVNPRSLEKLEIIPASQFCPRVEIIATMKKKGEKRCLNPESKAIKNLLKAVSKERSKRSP

T4: CXCL1/Gro-alpha (UniProt P09341 35-107)
T4 sequence: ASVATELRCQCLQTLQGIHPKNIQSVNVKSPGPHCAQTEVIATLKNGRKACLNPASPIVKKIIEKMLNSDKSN

T5: CXCL8/IL-8 (UniProt P10145 28-99, limits assumed)
T5 sequence (looked up): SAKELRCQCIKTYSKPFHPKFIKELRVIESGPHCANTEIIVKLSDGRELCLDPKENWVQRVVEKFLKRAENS

T6: CX3CL1/Fractalkine (UniProt P78423 25-100)
T6 sequence: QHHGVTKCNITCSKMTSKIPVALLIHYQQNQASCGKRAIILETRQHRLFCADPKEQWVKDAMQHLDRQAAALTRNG

T7: murine CXCL1/KC (murine, UniProt P12850 25-96)
T7 sequence: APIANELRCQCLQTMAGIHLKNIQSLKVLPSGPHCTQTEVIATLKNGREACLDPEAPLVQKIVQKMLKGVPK

T8: murine CXCL2/MIP-2 (murine, UniProt P10889 28-100)
T8 sequence: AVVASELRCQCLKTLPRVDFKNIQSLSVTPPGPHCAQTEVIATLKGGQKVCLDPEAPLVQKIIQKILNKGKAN

B1: recombinant Evasin-3-6His purified from HEK293 cells (other)
chain: LVSTIESRTSGDGADNFDVVSCNKNCTSGQNECPEGCFCGLLGQNKKGHCYKIIGNLSGEPPVVRRHHHHHH
modifications: glycosylation on the S and T residues of the N-terminal sequence LVSTIESRTS (80% of the mature protein); heterogeneous post-translational modification, smear of 20-30 Kd
notes: also called Evasin-3-HIS; mature Evasin-3-HIS
B2: CCL3/MIP-1-alpha (ligand)
chain: SLAADTPTACCFSYTSRQIPQNFIADYFETSSQCSKPGVIFLTKRSRQVCADPSEEWVQKYVSDLELSA
notes: also called MIP-1α
B3: CCL5/RANTES (ligand)
chain: SPYSSDTTPCCFAYIARPLPRAHIKEYFYTSGKCSNPAVVFVTRKNRQVCANPEKKWVREYINSLEMS
notes: also called 125I-CCL5/RANTES
B4: TARC/CCL17 (ligand)
chain: ARGTNVGRECCLEYFKGAIPLRKLKTWYQTSEDCSRDAIVFVTVQGRAICSDPNNKRVKNAVKYLQSLERS
notes: also called 125I-CCL17/TARC
B5: CCL4/MIP-1-beta (ligand)
chain: APMGSDPPTACCFSYTARKLPRNFVVDYYETSSLCSQPAVVFQTKRSKQVCADPSESWVQEYVYDLELN
notes: also called MIP-1β
B6: CCL18/PARC (ligand)
chain: AQVGTNKELCCLVYTSWQIPQKFIVDYSETSPQCPKPGVILLTKRGRQICADPNKKWVQKYISDLKLNA

Tests used:
CCL2/MCP-1 = target: T9, CCL2/MCP-1 (UniProt P13500 24-99); test: BS3 cross-linking of 125I-labelled protein to Evasin-3-6His, SDS-PAGE autoradiography (FIG. 7)
T9 construct: also called 125I-MCP-1

IL-1α = target: T1, IL-1α; test: as above
CTACK/CCL27 = target: T2, CTACK/CCL27; test: as above
CXCL10/IP-10 = target: T3, CXCL10/IP-10; test: as above
IL-2 = target: T10, IL-2 (UniProt P60568 21-153); test: as above
T10 construct: also called 125I-IL-2

CXCL1/Gro-alpha [1] = target: T4, CXCL1/Gro-alpha; test: cell-based or functional assay
CXCL8/IL-8 [2] = target: T5, CXCL8/IL-8; test: cell-based or functional assay
CCL11/eotaxin = target: T11, CCL11/eotaxin (UniProt P51671 24-97); test: SPR (Biacore 3000), Evasin-3-6His immobilized on CM4 chip, chemokine injected
T11 construct: also called 125I-eotaxin

CX3CL1/Fractalkine = target: T6, CX3CL1/Fractalkine; test: as above
CXCL12/SDF-1-alpha = target: T12, CXCL12/SDF-1-alpha (UniProt P48061 22-89); test: as above
T12 construct: also called SDF-1α

CXCL8/IL-8 [3] = target: T5, CXCL8/IL-8; test: equilibrium competition receptor binding assay: inhibition of 0.1 nM 125I-IL-8 binding to CHO/CXCR1 cells
murine CXCL1/KC [4] = target: T7, murine CXCL1/KC; test: SPR (Biacore 3000), Evasin-3-6His immobilized on CM4 chip, chemokine injected, Langmuir global fit
CXCL1/Gro-alpha [5] = target: T4, CXCL1/Gro-alpha; test: as above
CXCL8/IL-8 [6] = target: T5, CXCL8/IL-8; test: as above
murine CXCL2/MIP-2 [7] = target: T8, murine CXCL2/MIP-2; test: as above
murine CXCL1/KC [8] = target: T7, murine CXCL1/KC; test: SPR (Biacore 3000), Evasin-3-6His immobilized on CM4 chip, Kd=kd/ka
CXCL1/Gro-alpha [9] = target: T4, CXCL1/Gro-alpha; test: as above
CXCL8/IL-8 [10] = target: T5, CXCL8/IL-8; test: as above
murine CXCL2/MIP-2 [11] = target: T8, murine CXCL2/MIP-2; test: as above
[12] = target: B1; test: competition for BS3 cross-linking of 125I-CXCL8/IL-8 to recombinant Evasin-3 in HEK293 supernatant, SDS-PAGE autoradiography
[13] = target: B1; test: BS3 cross-linking of 125I-labelled protein to Evasin-3-6His, SDS-PAGE autoradiography (FIG. 7)
[14] = target: B1; test: SPR (Biacore 3000), Evasin-3-6His immobilized on CM4 chip, chemokine injected

T10 sequence (P60568 21-153 limits assumed): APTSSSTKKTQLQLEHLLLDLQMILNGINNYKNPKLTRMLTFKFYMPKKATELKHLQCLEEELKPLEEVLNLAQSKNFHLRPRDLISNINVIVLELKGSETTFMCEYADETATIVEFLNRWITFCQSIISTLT
T11 sequence (P51671 24-97 limits assumed): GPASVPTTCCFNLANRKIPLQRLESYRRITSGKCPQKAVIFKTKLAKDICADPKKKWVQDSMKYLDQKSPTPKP
T12 sequence (P48061 22-89 limits assumed): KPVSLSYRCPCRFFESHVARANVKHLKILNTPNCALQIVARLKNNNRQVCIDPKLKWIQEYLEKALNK
T9 sequence (P13500 24-99 limits assumed): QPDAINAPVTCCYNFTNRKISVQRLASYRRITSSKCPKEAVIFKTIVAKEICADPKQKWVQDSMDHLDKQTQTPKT

B1: no binding (tested: 0.23 nM 125I-labelled protein) (CCL2/MCP-1); no binding (tested: 0.23 nM 125I-labelled protein) (IL-1α); no binding (tested: 0.23 nM 125I-labelled protein) (CTACK/CCL27). For the same binder, the binding result (CXCL10/IP-10) was “no binding (tested: 0.23 nM 125I-labelled protein)”, the binding result (IL-2) was “no binding (tested: 0.23 nM 125I-labelled protein)” and the “IC50 of inhibition of Gro-alpha induced chemotaxis of human neutrophils” value (CXCL1/Gro-alpha [1]) was 20 nM. For the same binder, the “IC50 of inhibition of IL-8 induced chemotaxis of human neutrophils” value (CXCL8/IL-8 [2]) was 16 nM, the binding result (CCL11/eotaxin) was “no binding (tested: 0.5 µg/ml chemokine)” and the binding result (CX3CL1/Fractalkine) was “no binding (tested: 0.5 µg/ml chemokine)”. For the same binder, the binding result (CXCL12/SDF-1-alpha) was “no binding (tested: 0.5 µg/ml chemokine)”, the IC50 (CXCL8/IL-8 [3]) was 1 nM and the koff (murine CXCL1/KC [4]) was 0.0012 s⁻¹. The kon (murine CXCL1/KC [4]) was 225000 M⁻¹ s⁻¹, the koff (CXCL1/Gro-alpha [5]) was 0.00117 s⁻¹ and the kon (CXCL1/Gro-alpha [5]) was 2.6e+06 M⁻¹ s⁻¹. It also gave a koff (CXCL8/IL-8 [6]) of 0.000178 s⁻¹, a kon (CXCL8/IL-8 [6]) of 826000 M⁻¹ s⁻¹ and a koff (murine CXCL2/MIP-2 [7]) of 0.000255 s⁻¹. It also gave a kon (murine CXCL2/MIP-2 [7]) of 1.43e+06 M⁻¹ s⁻¹, a Kd (murine CXCL1/KC [8]) of 5.34 nM and a Kd (CXCL1/Gro-alpha [9]) of 0.45 nM. The Kd (CXCL8/IL-8 [10]) was 0.22 nM and the Kd (murine CXCL2/MIP-2 [11]) was 0.18 nM.

B2: no binding (tested: 1 µg unlabelled (500 fold excess)) [12].

B3: no binding (tested: 0.23 nM 125I-labelled protein) [13].

B4: no binding (tested: 0.23 nM 125I-labelled protein) [13].

B5: no binding (tested: 0.5 µg/ml chemokine) [14].

B6: no binding (tested: 0.5 µg/ml chemokine) [14].

Source: patent US20080227711A1 (LABORATOIRES SERONO, published 2008)
